B1: Hairpin Ribozyme (parent)
chain: GUCCUCUUUCACGUGCGCGUGAAAGAGAGAAGUGAACCAGAGAAACACACGUUGUGGUAUAUUACCUGGUA

The variants in the series derive from B1. As to the kind of experiment: self-cleavage, relative activity (ratio to wild type); higher = more cleavage; co-transcriptional.
For C6G A26C, the self-cleavage amounted to 0.22. For U53G U58C, the self-cleavage came to 0.987. The figure for G13C A35G is 0.801; for C50A A64C it is 0.124. As to C16U G19A, the self-cleavage stood at 1.03. For the variant U5C A43G, the self-cleavage is 0.201. The figure for G15A U63A is 0.116; for A36U it is 0.602.

For the variant A26C A39U, the self-cleavage worked out at 0.303. The figure for U9C G27U is 0.246; for G34C U63A it is 0.293; for G1A U2A it is 0.574. Consider C10U C38A, for which the self-cleavage worked out at 0.157. Consider G15A A44C, for which the self-cleavage was determined as 0.143. Turning to C16G G56U, the self-cleavage is 0.187. For G51C G69A, the self-cleavage came out at 0.336. The figure for A45C C46A is 0.152; for C38G A71C it is 0.272; for A22C G68A it is 0.165. The figure for U8C A11G is 0.458; for U2C C66A it is 0.0248; for A11C G68U it is 0.307.

Regarding G1A G42A, the self-cleavage worked out at 0.122.

As for A30U G57C, the self-cleavage was found to be 0.0918.

As for C4U A35U, the self-cleavage turned out to be 0.199. As for G56U C66U, the self-cleavage is 0.0775. In the case of C3G G54A, the self-cleavage is 0.177. The figure for C66U U67A is 0.162. Take G1U G57U: the self-cleavage was found to be 0.125. As for C12U A35G, the self-cleavage worked out at 0.938. C4U G21C: the self-cleavage was determined as 0.328.

In the case of C18U G54U, the self-cleavage amounted to 0.702. A28G A71U: the self-cleavage stood at 0.771. Turning to A28G A43G, the self-cleavage came to 0.158. For C12A C16G, the self-cleavage was 0.671. As for C12A C16U, the self-cleavage stood at 0.977. A35U: the self-cleavage was 0.811. On to G29A C65U, for which the self-cleavage was found to be 0.145. The figure for U33G A59C is 0.139; for C10A A36U it is 0.43; for C50A A59C it is 0.167. For G13C G34U, the self-cleavage came to 1.1. Regarding G40C U67C, the self-cleavage worked out at 0.098.

Regarding A11G A30C, the self-cleavage amounted to 0.146.

For the variant A36C A39U, the self-cleavage was determined as 0.137.

As for C48U U53C, the self-cleavage worked out at 0.233. Regarding U8G A11C, the self-cleavage was 0.512. As to G17C U70G, the self-cleavage worked out at 0.807. The figure for U9C C16G is 0.63; for C16G G42A it is 0.251; for G15A C38A it is 0.148.

For the variant G34U C37U, the self-cleavage was 1.59.

Turning to U9A A45C, the self-cleavage stood at 0.154. In the case of C16A A31C, the self-cleavage was 0.0433. For U8G C37A, the self-cleavage is 0.218.

In the case of C18G A28U, the self-cleavage is 0.5. As to G27A C66U, the self-cleavage was 0.13. Regarding C3G A43U, the self-cleavage was 0.111. Turning to G13U A49G, the self-cleavage was 0.483. With A24U G34C, the self-cleavage was 1.18. The figure for U33G A45C is 0.112. In the case of G40A U70C, the self-cleavage turned out to be 0.136. U14A G17U: the self-cleavage turned out to be 0.96.

Regarding C48U C50G, the self-cleavage came out at 0.109. Take G51U G57A: the self-cleavage was determined as 0.122. As to C3A G69A, the self-cleavage was 0.275. The figure for G56U G69C is 0.124.

For A36G U67G, the self-cleavage was 0.19. Regarding G42A U52A, the self-cleavage worked out at 0.221.

As for G25U A49C, the self-cleavage amounted to 0.179. For the variant G17U G42U, the self-cleavage came to 0.343. As to A39G G40U, the self-cleavage was determined as 0.116.

U8G A41C: the self-cleavage amounted to 0.801.

Take A22G A47G: the self-cleavage was 0.135. With A24C G34A, the self-cleavage came to 0.895. On to G25C A26C, for which the self-cleavage was 0.199. The figure for G1C G42A is 0.148. The figure for C18A G69A is 0.455; for C18A U62G it is 0.138; for A26G U62G it is 0.0228. With A24C G27C, the self-cleavage was determined as 0.228.

As for G17C G21U, the self-cleavage is 0.53.

For C65G U67G, the self-cleavage worked out at 0.0652. For U8C A71U, the self-cleavage is 0.569. Turning to C16U G32A, the self-cleavage amounted to 0.216. Take A45G U52G: the self-cleavage was found to be 0.0854. C16A G57A: the self-cleavage is 0.129. Consider A41C U70A, for which the self-cleavage was determined as 0.732. G32U U60A: the self-cleavage worked out at 0.17. Turning to G25A A43C, the self-cleavage amounted to 0.136. On to G21A A36C, for which the self-cleavage was found to be 0.605. Turning to G17A A39C, the self-cleavage was determined as 0.51. Regarding G1U G42A, the self-cleavage amounted to 0.121. For the variant A43C C48G, the self-cleavage was 0.0498.

As for C12G G54A, the self-cleavage stood at 0.543. As for C18A U55C, the self-cleavage amounted to 0.3.

Take G19U A39U: the self-cleavage is 0.324.

Regarding C37G G68A, the self-cleavage is 0.14. The figure for U55C G56C is 0.114; for C37U A44G it is 0.112.

As for C10A A22U, the self-cleavage was found to be 0.632. On to G13C G25U, for which the self-cleavage is 0.436.

In the case of C3A C66G, the self-cleavage turned out to be 0.234.

With C4G U7C, the self-cleavage is 0.15. With A23G G40C, the self-cleavage was determined as 0.16.

Regarding G17U A30C, the self-cleavage stood at 0.176.

As to C12U U20G, the self-cleavage came to 0.76. The figure for U14G A43G is 0.0894; for A44G U58C it is 0.0672. Take G25U G34A: the self-cleavage turned out to be 0.897. Take G15C A23C: the self-cleavage turned out to be 0.868.

Take A35C U60A: the self-cleavage was 0.664. The figure for A31C A61U is 0.0706; for G17C A47G it is 0.0817; for U8A C48G it is 0.107.

Consider U8A C48U, for which the self-cleavage was found to be 0.117.

Consider U8G U33A, for which the self-cleavage was found to be 0.136. Turning to U8C G56A, the self-cleavage was 0.153. Consider G25U U58C, for which the self-cleavage is 0.503.

With A26G G34U, the self-cleavage turned out to be 1.37. With U14G G34C, the self-cleavage was 1.52. Take A11U G54C: the self-cleavage was 0.333. With A24G A28G, the self-cleavage turned out to be 0.882. Regarding G21A C50U, the self-cleavage amounted to 0.371. U58A A71C: the self-cleavage turned out to be 1.19.

Regarding A26C A44G, the self-cleavage was determined as 0.124. On to U20G A31C, for which the self-cleavage was determined as 0.164.

In the case of C18G C66G, the self-cleavage was 0.19. The figure for C18G C66U is 0.479; for A36G U70A it is 1.11. The figure for C37U U70G is 0.505.

In the case of U33A A61G, the self-cleavage came out at 0.0674. In the case of C38G U60A, the self-cleavage turned out to be 0.116. The figure for G42C A71G is 0.339. The figure for C16U U63C is 0.165. Regarding G19A G69U, the self-cleavage worked out at 0.213. The figure for C6U A43U is 0.119; for G13U G21A it is 0.595. In the case of A26U U70A, the self-cleavage came out at 0.575. Regarding A26U U70G, the self-cleavage was determined as 0.397. Regarding U2C G13C, the self-cleavage came to 0.121.

Take A26C G40U: the self-cleavage amounted to 0.114. For the variant C10U A47U, the self-cleavage came to 0.109.

Consider U2A A64C, for which the self-cleavage is 0.112.

With U14C A41U, the self-cleavage came to 1.34. On to C37G U55G, for which the self-cleavage turned out to be 0.119. For the variant G19C G54C, the self-cleavage was found to be 0.406. As to G15U U55A, the self-cleavage was found to be 0.304.

Consider A45U G54U, for which the self-cleavage stood at 0.0699. Regarding G51C A61G, the self-cleavage amounted to 0.138. For the variant A35U A41G, the self-cleavage amounted to 0.599. As to G32C G56A, the self-cleavage stood at 0.13. The figure for C6U G29C is 0.13; for C48A U60A it is 0.134. The figure for U9A G68C is 0.165; for G19A A22C it is 0.677; for A22U A31C it is 0.0317.

For the variant A31G A44G, the self-cleavage was 0.208. As for A28G G32C, the self-cleavage was 0.119. For C4U G57U, the self-cleavage was found to be 0.161. For the variant U2G A36G, the self-cleavage was determined as 0.274. A11U G13U: the self-cleavage was 0.54. On to G21A C46A, for which the self-cleavage amounted to 0.149.

With A28C C66U, the self-cleavage is 0.227. With U7A A49G, the self-cleavage is 0.49. Regarding U5G C65G, the self-cleavage came out at 0.0535. Turning to A36C C38U, the self-cleavage turned out to be 0.274.

Source of the values: the RNAGym collection of RNA variant scans (doi:10.7554/elife.80360).
